From paper PMC10000358, “Development of an inhibiting antibody against equine interleukin 5 to treat insect bite hypersensitivity of horses” (Scientific Reports, 2023)
Several values for one entry are separate records, joined by “and”; a condition that tells them apart may be missing. Identical values can stand only once.

T1: equine interleukin 5 with 8 × His-tag (equine (horse), UniProt O02699 20-134)
T1 chain: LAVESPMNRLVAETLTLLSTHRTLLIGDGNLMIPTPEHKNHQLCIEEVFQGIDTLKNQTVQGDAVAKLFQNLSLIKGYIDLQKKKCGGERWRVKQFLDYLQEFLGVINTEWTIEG


Legend:
[1] = target: T2, equine interleukin 5 with 8 × His-tag (Equus caballus, UniProt O02699)
[2] = target: T2, equine interleukin 5 with 8 × His-tag; experiment: flow cytometry on cells; cellular in vitro inhibition assay: antibody (screening 1000 nM; titration 1000 nM-0.32 nM) pre-incubated with 5 nM eqIL-5 (related to dimer), then added to 5 x 10^5 eqIL-5 receptor expressing Expi293F cells for 45 min on ice, FACS buffer (2% FCS, 5 mM EDTA in PBS); bound eqIL-5 detected by Penta-His antibody and anti mouse Fc-APC; IC50 by Logistic5 fit; single measurements; conditions: both partners purified
BSA [3] = target: T3, BSA (Bos taurus, UniProt P02769); experiment: ELISA; titration ELISA: 100 ng eqIL-5/well (or 1% BSA as negative control) immobilised, blocked with 2% MPBST; eqIgG6 antibody titrated from 316 nM, 1 h at RT; detected with anti horse IgG (Fc)-HRP; EC50 by Logistic5 fit; triplicates; conditions: both partners purified
T3 construct: BSA (serum albumin), negative control coated on the plate

[4] = target: T1, equine interleukin 5 with 8 × His-tag; experiment: ELISA
[5] = target: T2, equine interleukin 5 with 8 × His-tag; experiment: ELISA; titration ELISA: 100 ng eqIL-5/well (or 1% BSA as negative control) immobilised, blocked with 2% MPBST; eqIgG6 antibody titrated from 316 nM, 1 h at RT; detected with anti horse IgG (Fc)-HRP; EC50 by Logistic5 fit; triplicates; conditions: both partners purified
BSA [6] = target: T3, BSA; experiment: ELISA; unspecificity ELISA: antigens immobilised at 10 ug/mL in PBS, blocked with 2% MPBST; 100 nM eqIgG6 antibody, 1 h at RT; detected with anti horse IgG (Fc)-HRP; conditions: both partners purified
[7] = target: T2, equine interleukin 5 with 8 × His-tag; experiment: flow cytometry on cells; competitive cellular inhibition assay: no pre-incubation; 1000 nM-0.1 nM antibody first put on 5 x 10^5 receptor expressing cells, then 5 nM eqIL-5 (related to dimer) added for 45 min on ice; detection as before; conditions: both partners purified

T3 sequence (P02769 25-607): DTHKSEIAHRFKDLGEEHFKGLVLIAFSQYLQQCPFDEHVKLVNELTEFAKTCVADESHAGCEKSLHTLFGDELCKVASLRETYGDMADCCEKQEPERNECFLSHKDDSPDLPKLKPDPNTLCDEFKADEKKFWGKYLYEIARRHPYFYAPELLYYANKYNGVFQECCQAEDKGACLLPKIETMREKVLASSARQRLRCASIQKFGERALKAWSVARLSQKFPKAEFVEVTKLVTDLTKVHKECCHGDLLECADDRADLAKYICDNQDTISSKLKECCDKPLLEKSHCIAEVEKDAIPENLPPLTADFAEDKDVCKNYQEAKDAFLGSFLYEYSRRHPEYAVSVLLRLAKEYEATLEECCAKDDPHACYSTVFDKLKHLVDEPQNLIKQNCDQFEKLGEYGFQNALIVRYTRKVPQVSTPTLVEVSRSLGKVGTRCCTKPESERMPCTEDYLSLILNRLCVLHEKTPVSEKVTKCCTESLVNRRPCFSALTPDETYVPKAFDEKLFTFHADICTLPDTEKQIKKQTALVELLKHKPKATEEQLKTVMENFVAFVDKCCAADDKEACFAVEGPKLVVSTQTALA

Binder | binding result [1] | IC50 [2] | binding result (BSA [3]) | EC50 [4] | EC50 [5] | other results
NOL225-2-F10 (antibody, V domains shown) VH: QVQLQQSGGGVVQPGRSLRLSCAASGFTFSSYGMHWVRQAPGKGLEWVAVIWYDGSNKYYADSVKGRFTISRDNSKNTLYLQINSLRAEDTAVYYCARGLYGRSYFDYWGQGTLVTVSS VL: SYELTQPPSVSVAPGQTAKIVCEGDNIGSKSVHWYQQRPGQAPVLVVYDDTDRPSGIPDRFSGSNSGNTATLTISRVEVGDEADYYCQVWDSGDGHPRVFGGGTKLTVL | binds |  |  |  |  | 
NOL226-2-D1 (antibody, V domains shown) VH: EVQLVETGGGVVRPGRSLRLSCAASGFTFSSYGMHWVRQAPGKGLEWVAVISYDGSNKYYADSVKGRFTISRDNSKNTLYLQMNSLRAEDTAVYYCVKGFKIQLWFAAFDIWGQGTMVTVSS VL: QSVLTQPPSVSVAPGQTARITCGGNNIGSKSVHWYQQKPGQAPVLVVYDDSDRPSGIPERFSGSNSGNTATLTIGRVESGDEADYYCQVWDSSSDPVVFGGGTKLTVL | binds |  |  |  |  | 
NOL226-2-G9 (antibody, V domains shown) VH: EVQLEETGGGVVQPGRSLRLSCAASGFTFGSYGMHWVRQAPGKGLEWVAVISYDGSNKYYADSVKGRFTISRDNSKNTLYLQMNSLRAEDTAVYYCAKGFKIQLWFAAFDIWGQGTMVTVSS VL: QSVLTQPPSISVAPGQTARITCGGNNIGSKSVHWYHQKPGQAPVLVVYDDSDRPSGIPERFSGSNSGNTATLTISRVEAGDEADYYCQVWDSSSDPVVFGGGTKLTVL | binds |  |  |  |  | 
NOL229-C3 (antibody, V domains shown) VH: EVQLVETGGGVVQPGRSLRLSCAASGFTFRSYGMHWVRQAPGKGLEWVAVISNDGSNKYYADSVKGRFTISRDNSKNTLYLQMNSLRAEDTAVYYCAKGFKIQLWFAAFDIWGQGAMVTVSS VL: QSVLTQPPSVSVAPGQTARITCGGNNIGSKSVHWYQQKPGQAPVLVVYDDSDRPSGIPERFSGSNTGNTATLTISRVEAGDEADYYCQVWDSSSDPVVFGGGTKLTVL | binds |  |  |  |  | 
NOL231-2-E2 (eqIgG6 format) (antibody, V domains shown, source: Expi293F suspension cells, purified (HiTrap Fibro PrismA or Protein G HP)) VH: QVQLQQSEGGVVQPGRSLRLSCAASGFTFSSYGMHWVRQAPGKGLEWLAVIWYDGSNKYYADSVKGRFTISRDNSKNTLYLQMNSLRAEDTAVYYCARGLFGRSYFDYWGQGTLVTVSS VL: SYELTQPPSVSVAPGQTAKITCEGDNIGSKSVHWYQQRPGQAPVLVVYDDTDRPSGIPDRFSGSNSGNTATLTISRVEVGDEADYYCQVWDSGDGHPRVFGGGTKLTVL |  | 3 nM | no binding (tested: 316 nM) | 0.5 nM |  | 
NOL225-2-C1 (eqIgG6 format) (antibody, V domains shown, source: Expi293F suspension cells, purified (HiTrap Fibro PrismA or Protein G HP)) VH: QVQLQQSGGGVVQPGRSLRLSCAASGFTFSSYGMHWVRQAPGKGLEWVAVIWYDGRNKYYADSVKGRFTISRDNSKNTLYLQMNSLRAEDTAVYYCARGLFGRSYFDYWGQGTLVTVSS VL: SYELTQPPSMSVAPGQTARIACEGDNIGSKSVHWYQQRPGQAPVLVVFDDTDRPSGIPDRFSGSNSGNTATLTISRVEVGDEADYYCQVWDSGDGHPRVFGGGTKLTVL |  | 4 nM | no binding (tested: 316 nM) | 0.4 nM |  | 
NOL231-1-A3 (eqIgG6 format) (antibody, V domains shown, as the VH of m3 (NOL48-1-D5); as the VL of m3 (NOL48-1-D5) with H96N in the CDR3 of the VL; source: Expi293F suspension cells, purified (HiTrap Fibro PrismA or Protein G HP)) VH: QVQLQQSGGGVVQPGRSLRLSCAASGFTFSSYGMHWVRQAPGKGLEWVAVIWYDGSNKYYADSVKGRFTISRDNSKNTLYLQMNSLRAEDTAVYYCARGLYGRSYFDYWGQGTLVTVSS VL: SYELTQPPSVSVAPGQTAKIACEGDNIGSKSVHWYQQRPGQAPVLVVYDDTDRPSGIPDRFSGSNSGNTATLTISRVEVGDEADYYCQVWDSGDGNPRVFGGGTKLTVL |  | 4 nM | no binding (tested: 316 nM) | 0.5 nM |  | 
NOL48-1-D5 (eqIgG6 format) (antibody, V domains shown, human VH of NOL48-1-D5 (selected from HAL9/10); human VL of NOL48-1-D5; Chimeric IgG: human VH and VL, all constant domains equine (IgG6); Selected by panning in solution; also called parental antibody; parAB; source: Expi293F suspension cells, purified (HiTrap Fibro PrismA or Protein G HP)) VH: QVQLQQSGGGVVQPGRSLRLSCAASGFTFSSYGMHWVRQAPGKGLEWVAVIWYDGSNKYYADSVKGRFTISRDNSKNTLYLQMNSLRAEDTAVYYCARGLYGRSYFDYWGQGTLVTVSS VL: SYELTQPPSVSVAPGQTAKIACEGDNIGSKSVHWYQQRPGQAPVLVVYDDTDRPSGIPDRFSGSNSGNTATLTISRVEVGDEADYYCQVWDSGDGHPRVFGGGTKLTVL |  | 6 nM and 12 nM | no binding (tested: 316 nM) |  | 1 nM | 
NOL162-1-F5 (eqIgG6 format) (antibody, V domains shown, human VH of NOL162-1-F5 (selected from HAL9/10); human VL of NOL162-1-F5; Chimeric IgG: human VH and VL, all constant domains equine (IgG6); Selected by panning in MTP; also called parental antibody; parAB; source: Expi293F suspension cells, purified (HiTrap Fibro PrismA or Protein G HP)) VH: EVQLVETGGGVVQPGRSLRLSCAASGFTFSSYGMHWVRQAPGKGLEWVAVISYDGSNKYYADSVKGRFTISRDNSKNTLYLQMNSLRAEDTAVYYCAKGFKIQLWFAAFDIWGQGTMVTVSS VL: QSVLTQPPSVSVAPGQTARITCGGNNIGSKSVHWYQQKPGQAPVLVVYDDSDRPSGIPERFSGSNSGNTATLTISRVEAGDEADYYCQVWDSSSDPVVFGGGTKLTVL |  | 7 nM and 12 nM |  |  | 9 nM | binding result (BSA [6]): no binding (tested: 100 nM); IC50 [7]: 15 nM
NOL226-2-D10 (eqIgG6 format) (antibody, V domains shown, as the VH of m4 (NOL162-1-F5) with A97V and F100L, both in the CDR3 of the VH; as the VL of m4 (NOL162-1-F5); also called final antibody; final candidate; source: Expi293F suspension cells, purified (HiTrap Fibro PrismA or Protein G HP)) VH: EVQLVETGGGVVQPGRSLRLSCAASGFTFSSYGMHWVRQAPGKGLEWVAVISYDGSNKYYADSVKGRFTISRDNSKNTLYLQMNSLRAEDTAVYYCVKGLKIQLWFAAFDIWGQGTMVTVSS VL: QSVLTQPPSVSVAPGQTARITCGGNNIGSKSVHWYQQKPGQAPVLVVYDDSDRPSGIPERFSGSNSGNTATLTISRVEAGDEADYYCQVWDSSSDPVVFGGGTKLTVL |  | 4 nM |  |  | 8.8 nM | binding result (BSA [6]): no binding (tested: 100 nM); IC50 [7]: 9 nM
